Test results: patent US20180312587A1 (ADURO BIOTECH HOLDINGS EUROPE B V, published 2018)

B1: hSIRPα.50A (antibody, V domains shown)
VH: QVQLQQSGPELVKPGASVRISCKASGFTFTNYYIHWVKQRPGQGLEWIGWIYPGNVNTKYNEKFKAKATLTADKSSTTAYMQLSSLASEDSAVYFCARPTIIATDFDVWGAGTTVTVSS
VL: DIVMTQSHKFMSTSVGDRVNITCKASQGVGTAVGWYQQKPGQSPRLLIYWASTRHTGVPDRFTGSGSGTDFSLAISNVQSEDLADYFCQQYSTYPFTFGGGTNLEIK
notes: light chain constant domain not tied; also called mouse hSIRPα.50A; hSIRPα.50A.mIgG1
B2: KWAR23 (antibody, V domains shown)
VH: EVQLQQSGAELVKPGASVKLSCTASGFNIKDYYIHWVQQRTEQGLEWIGRIDPEDGETKYAPKFQDKATITADTSSNTAYLHLSSLTSEDTAVYYCARWGAYWGQGTLVTVSS
VL: QIVLTQSPAIMSASPGEKVTLTCSASSSVSSSYLYWYQQKPGSSPKLWIYSTSNLASGVPARFSGSGSGTSYSLTISSMEAEDAASYFCHQWSSYPRTFGAGTKLELK
B3: hSIRPα.40A (antibody, mouse IgG1, kappa, V domains shown)
VH: EVQFQQSGTVLARPGTSVKMSCKASGSTFTSYWMHWVKQGPGQGLQWIGAIYPVNNDTTYNQKFKGKAELTVVTSTSTAYMEVSSLTNEDSAVYYCTRSFYYSLDAAWFVYWGQGTLVTVSA
VL: DIQMTQSPSSLSASLGERVSLTCRASQDIGSRLNWLQQEPDGTIKRLIYATSSLDSGVPKRFSGSRSGSDYSLTISGLESEDFVDYYCLQYASSPFTFGGGTKLEINR
notes: mouse antibody, full chains without signal peptide; also called mouse hSIRPα.40A

Columns and labels:
human SIRPα variant 1 [1] = molecular target: T1, human SIRPα variant 1 (human, UniProt P78324 31-504); assay: CELISA, CHO-K1 transfectants, domain exchange study
T1 construct: full length ORF on transfected CHO-K1 or HEK293 cells; entry includes the signal peptide; also called hSIRPαV1; SIRPαV1
Description: (§1) Based on the fold of SIRPα/β1/γ, the extracellular region can be subdivided into three separate domains: the Ig-like (immunoglobulin-like) V-type (IgV), Ig-like C1-type (IgC1), and Ig-like C2-type (IgC2) domain. The IgV domain is also known as the ligand-binding N-terminal domain of SIRPα and SIRPγ (which binds to CD47). The human SIRPβ1/γ mutants were designed based on the full length hSIRPβ1 sequence (SEQ ID NO: 38) and each individual Ig-like domain was substituted for the equivalent domain of human SIRPγ (SEQ ID NO: 40). […] Binding of hSIRPα.40A to the exchange mutants was tested using CELISA. To this end, CHO-K1 cells were transiently transfected, using Lipofectamine 2000, with the pCI-neo vectors encoding hSIRPαV1, hSIRPαV2, hSIRPβ1, hSIRP-VγC1βC2β, hSIRP-VβC1γC2β, and hSIRP-VβC1βC2γ, respectively. The transfected cells were cultured at 37° C., 5% CO₂ and 95% humidity in medium (DMEM-F12 (Gibco) with 5% New Born Calf serum (Biowest) and Pen/Strep (Gibco)) until confluent. Subsequently, cells were trypsinized and seeded in 96-well flat-bottom tissue culture plates and cultured at 37° C., 5% CO₂ and 95% humidity in culture medium until confluent. Then, culture medium was removed and cells were incubated for 1 hour at 37° C., 5% CO₂ and 95% humidity with hSIRPα.40A, hSIRPα.50A, and anti-hSIRPα clone SE5A5 antibodies. Next, cells were washed with PBS-T and incubated for 1 hour at 37° C., 5% CO₂ and 95% humidity with goat-anti-mouse IgG-HRP conjugate (Southern Biotech). After that, cells were washed three times with PBS-T and anti-hSIRPα immunoreactivity was visualized with TMB Stabilized Chromogen (Invitrogen). Reactions were stopped with 0.5 M H₂SO₄ and absorbances were read at 450 and 610 nm.
Target sequence in this assay (P78324 31-504 limits assumed, change not shown): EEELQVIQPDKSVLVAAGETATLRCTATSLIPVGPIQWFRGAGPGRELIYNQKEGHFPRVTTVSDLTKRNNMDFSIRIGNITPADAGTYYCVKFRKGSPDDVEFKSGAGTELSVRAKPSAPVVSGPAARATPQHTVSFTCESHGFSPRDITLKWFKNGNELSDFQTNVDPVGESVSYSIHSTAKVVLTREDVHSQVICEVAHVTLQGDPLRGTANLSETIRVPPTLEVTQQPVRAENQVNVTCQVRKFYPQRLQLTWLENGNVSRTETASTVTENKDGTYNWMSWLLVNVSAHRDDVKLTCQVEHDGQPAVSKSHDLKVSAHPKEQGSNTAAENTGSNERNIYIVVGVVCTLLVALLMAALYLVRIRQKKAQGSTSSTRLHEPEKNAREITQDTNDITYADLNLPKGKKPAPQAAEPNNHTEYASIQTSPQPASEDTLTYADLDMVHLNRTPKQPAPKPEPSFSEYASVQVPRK

human SIRPα variant 2 [2] = molecular target: T2, human SIRPα variant 2 (human, UniProt P78324 31-504); assay: as above
T2 construct: full length ORF on transfected CHO-K1 cells; also called hSIRPαV2; SIRPαV2
T2 sequence (P78324 other isoform, or with tags, fused parts or gaps mutant limits assumed): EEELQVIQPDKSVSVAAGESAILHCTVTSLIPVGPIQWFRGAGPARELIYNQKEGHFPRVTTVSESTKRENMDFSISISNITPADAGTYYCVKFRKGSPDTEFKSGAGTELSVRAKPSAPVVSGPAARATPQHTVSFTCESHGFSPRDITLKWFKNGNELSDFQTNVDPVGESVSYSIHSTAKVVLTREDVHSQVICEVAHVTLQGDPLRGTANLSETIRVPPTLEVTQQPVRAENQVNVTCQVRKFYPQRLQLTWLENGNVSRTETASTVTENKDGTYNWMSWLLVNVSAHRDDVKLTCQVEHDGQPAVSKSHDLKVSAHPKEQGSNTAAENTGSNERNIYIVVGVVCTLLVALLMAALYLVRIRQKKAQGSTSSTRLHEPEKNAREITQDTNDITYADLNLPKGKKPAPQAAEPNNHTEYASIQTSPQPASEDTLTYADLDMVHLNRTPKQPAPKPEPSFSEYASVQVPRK
Description: as §1

human SIRPα variant 1 [3] = molecular target: T1, human SIRPα variant 1; assay: CELISA, CHO-K1 transfectants; average of two experiments
Protocol: (§2) The binding specificity of antibody hSIRPα.50A to hSIRPα was compared antibody KWAR23 (Canadian Patent 2939293 A1), in a CELISA format. CHO-K1 cells were transiently transfected with hSIRPαV1, hSIRPαV2, hSIRPβ1, and hSIRPγ (GenBank accession: NM_018556.3) (SEQ ID NO: 39) cDNAs. Subsequently, hSIRPα binding was assessed by CELISA using CHO-K1.hSIRPαV1, CHO-K1.hSIRPαV2, CHO-K1.hSIRPβ1, and CHO-K1.hSIRPγ cells. Detection of bound antibody was performed with goat-anti-mouse IgG-HRP (Southern Biotech) for mouse antibodies including hSIRPα.50A and control antibodies or, alternatively, with goat-anti-human IgG-HRP conjugate (Jackson Immuno Research) for the KWAR23 antibody. KWAR23 (SEQ ID NO: 130; SEQ ID NO: 131) was expressed as a chimeric human IgG4 kappa antibody in CHO cells. As shown in FIG. 2 and the following Table 9, KWAR23 antibody cross-reacts with all members of the SIRP receptor family tested: it binds to hSIRPαV1, hSIRPαV2, hSIRPβ1, and hSIRPγ.

human SIRPα variant 2 [4] = molecular target: T2, human SIRPα variant 2; assay: as above
Protocol: as §2

human SIRPγ = molecular target: T3, human SIRPγ (human, UniProt Q9P1W8 29-387); assay: as above
T3 construct: on transfected CHO-K1 cells; also called hSIRPγ
T3 sequence (Q9P1W8 29-387 limits assumed): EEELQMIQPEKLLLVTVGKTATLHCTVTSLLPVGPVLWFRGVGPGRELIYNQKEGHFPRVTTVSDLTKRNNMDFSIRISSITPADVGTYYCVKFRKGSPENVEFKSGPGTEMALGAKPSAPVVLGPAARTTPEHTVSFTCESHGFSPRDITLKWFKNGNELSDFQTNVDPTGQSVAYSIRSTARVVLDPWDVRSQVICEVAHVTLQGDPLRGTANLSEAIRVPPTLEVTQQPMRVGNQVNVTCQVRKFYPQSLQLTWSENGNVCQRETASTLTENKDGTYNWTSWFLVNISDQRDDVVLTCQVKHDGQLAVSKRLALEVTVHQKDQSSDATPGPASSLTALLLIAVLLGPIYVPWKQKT
Protocol: as §2

[5] = molecular target: T4, hSIRPβ1 transcript variant 3/hSIRPβL (human, UniProt Q5TFQ8 30-398); assay: as above
T4 construct: also called human SIRPβL
T4 sequence (Q5TFQ8 30-398 limits assumed, change not shown): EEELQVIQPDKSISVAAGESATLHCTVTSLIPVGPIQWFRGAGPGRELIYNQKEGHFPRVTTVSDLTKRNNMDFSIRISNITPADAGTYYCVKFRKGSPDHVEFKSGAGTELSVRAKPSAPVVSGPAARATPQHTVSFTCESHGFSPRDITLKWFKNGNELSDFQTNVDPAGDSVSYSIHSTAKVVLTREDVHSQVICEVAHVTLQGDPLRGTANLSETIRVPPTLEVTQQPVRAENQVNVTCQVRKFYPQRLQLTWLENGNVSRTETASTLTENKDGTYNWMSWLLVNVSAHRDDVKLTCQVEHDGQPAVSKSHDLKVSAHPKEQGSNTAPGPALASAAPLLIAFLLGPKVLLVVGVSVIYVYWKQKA
Protocol: The binding specificity of antibodies hSIRPα.40A and hSIRPα.50A to hSIRPα were compared in a CELISA format. In short, CHO-K1 cells were transiently transfected with hSIRPαV1, hSIRPαV2, hSIRPβ1, hSIRPβL, and hSIRPγ cDNAs. Subsequently, hSIRPα binding was assessed by CELISA using CHO-K1.hSIRPαV1, CHO-K1.hSIRPαV2, CHO-K1.hSIRPβ1, CHO-K1.hSIRPβL, and CHO-K1.hSIRPγ cells. Detection of bound antibody was done with goat-anti-mouse IgG-HRP (Southern Biotech).

[6] = molecular target: T5, hSIRPα expressed on primary human cells (human, UniProt P78324 31-504); assay: flow cytometry on CD14+ enriched monocytes, human donor 1; blocked ligand: DyLight 488-labeled recombinant hCD47/Fc
T5 construct: whole, on cells; also called hSIRPα on primary human CD14+ monocytes; on primary human granulocytes
T5 sequence (P78324 31-504): as the sequence (P78324 31-504 limits assumed, change not shown) above
Protocol: To assess the blocking ability of hSIRPα.40A, CD14+ enriched monocytes cells were seeded in 96-well round bottomed tissue culture plates and incubated for 45 minutes with FcR Blocking Reagent (Miltenyi Biotec) and hSIRPα.40A antibody (20 μg/mL and dilutions thereof) in PBS/1% BSA at 4° C. […] After this labeling procedure, cells were washed two times, resuspended in PBS/1% BSA containing 0.1 μg/mL DAPI (BioLegend), and analysed by flow cytometry on the FACSVerse (BD Biosciences). Data were processed and analysed with FlowJo V10 software (FlowJo, LLC). […] IC50 values represent the concentration at which half of the inhibition is observed.

Binder | EC50 (human SIRPα variant 1 [1]) [nM] | EC50 (human SIRPα variant 2 [2]) [nM] | EC50 (human SIRPα variant 1 [3]) [nM] | EC50 (human SIRPα variant 2 [4]) [nM] | EC50 (human SIRPγ) [nM] | EC50 [5] [nM] | IC50 (read off the curve) [6] [nM]
B1 | 0.968 | 0.821 | 1.36 | 1.3 | 1.25 | 0.632 | 
B2 |  |  | 0.081 | 0.051 | 0.04 |  | 
B3 | 0.133 | 0.101 |  |  |  |  | ~0.4
